Data reported in US20240261333A1, “NOVEL TARGETS FOR ENHANCING ANTI-TUMOR IMMUNITY” (THE BROAD INSTITUTE, INC., priority 2021, published 2024).

B1: SMN1 (protein)
chain: AMSSGGSGGGVPEQEDSVLFRRGTGQSDDSDIWDDTALIKAYDKAVASFKHALKNGDICETSGKPKTTPKRKPAKKNKSQKKNTAASLQQWKVGDKCSAIWSEDGCIYPATIASIDFKRETCVVVYTGYGNREEQNLSDLLSPICEVANNIEQNAQENENESQVSTDESENSRSPGNKSDNIKPKSAPWNSFLPPPPPMPGPRLGPGKPGLKFNGPPPPPPPPPPHLLSCWLPPFPSGPPIIPPPPPICPDSLDDADALGSMLISWYMSGYHTGYYMEMLA
B2: DPM1 (protein, UniProt O60762 2-260, looked up)
Dolichol-phosphate …: ASLEVSRSPRRSRRELEVRSPRQNKYSVLLPTYNERENLPLIVWLLVKSFSESGINYEIIIIDDGSPDGTRDVAEQLEKIYGSDRILLRPREKKLGLGTAYIHGMKHATGNYIIIMDADLSHHPKFIPEFIRKQKEGNFDIVSGTRYKGNGGVYGWDLKRKIISRGANFLTQILLRPGASDLTGSFRLYRKEVLEKLIEKCVSKGYVFQMEMIVRARQLNYTIGEVPISFVDRVYGESKLGGNEIVSFLKGLLTLFATT
B3: GNAS (protein)
chain: MGVRNCLYGNNMSGQRDIPPEIGEQPEQPPLEAPGAAAPGAGPSPAEEMETEPPHNEPIPVENDGEACGPPEVSRPNFQVLNPAFREAGAHGSYSPPPEEAMPFEAEQPSLGGFWPTLEQPGFPSGVHAGLEAFGPALMEPGAFSGARPGLGGYSPPPEEAMPFEFDQPAQRGCSQLLLQVPDLAPGGPGAAGVPGAPPEEPQALRPAKAGSRGGYSPPPEETMPFELDGEGFGDDSPPPGLSRVIAQVDGSSQFAAVAASSAVRLTPAANAPPLWVPGAIGSPSQEAVRPPSNFTGSSPWMEISGPPFEIGSAPAGVDDTPVNMDSPPIALDGPPIKVSGAPDKRERAERPPVEEEAAEMEGAADAAEGGKVPSPGYGSPAAGAASADTAARAAPAAPADPDSGATPEDPDSGTAPADPDSGAFAADPDSGAAPAAPADPDSGAAPDAPADPDSGAAPDAPADPDAGAAPEAPAAPAAAETRAAHVAPAAPDAGAPTAPAASATRAAQVRRAASAAPASGARRKIHLRPPSPEIQAADPPTPRPTRASAWRGKSESSRGRRVYYDEGVASSDDDSSGDESDDGTSGCLRWFQHRRNRRRRKPQRNLLRNFLVQAFGGCFGRSESPQPKASRSLKVKKVPLAEKRRQMRKEALEKRAQKRAEKKRSKLIDKQLQDEKMGYMCTHRLLLLGAGESGKSTIVKQMRILHVNGFNGEGGEEDPQAARSNSDGEKATKVQDIKNNLKEAIETIVAAMSNLVPPVELANPENQFRVDYILSVMNVPDFDFPPEFYEHAKALWEDEGVRACYERSNEYQLIDCAQYFLDKIDVIKQADYVPSDQDLLRCRVLTSGIFETKFQVDKVNFHMFDVGGQRDERRKWIQCFNDVTAIIFVVASSSYNMVIREDNQTNRLQEALNLFKSIWNNRWLRTISVILFLNKQDLLAEKVLAGKSKIEDYFPEFARYTTPEDATPEPGEDPRVTRAKYFIRDEFLRISTASGDGRHYCYPHFTCAVDTENIRRVFNDCRDIIQRMHLRQYELL
B4: LOXL4 (protein)
chain: QSLGTTKLRLVGPESKPEEGRLEVLHQGQWGTVCDDNFAIQEATVACRQLGFEAALTWAHSAKYGQGEGPIWLDNVRCVGTESSLDQCGSNGWGVSDCSHSEDVGVICHPRRHRGYLSETVSNALGPQGRRLEEVRLKPILASAKQHSPVTEGAVEVKYEGHWRQVCDQGWTMNNSRVVCGMLGFPSEVPVDSHYYRKVWDLKMRDPKSRLKSLTNKNSFWIHQVTCLGTEPHMANCQVQVAPARGKLRPACPGGMHAVVSCVAGPHFRPPKTKPQRKGSWAEEPRVRLRSGAQVGEGRVEVLMNRQWGTVCDHRWNLISASVVCRQLGFGSAREALFGARLGQGLGPIHLSEVRCRGYERTLSDCPALEGSQNGCQHENDAAVRCNVPNMGFQNQVRLAGGRIPEEGLLEVQVEVNGVPRWGSVCSENWGLTEAMVACRQLGLGFAIHAYKETWFWSGTPRAQEVVMSGVRCSGTELALQQCQRHGPVHCSHGGGRFLAGVSCMDSAPDLVMNAQLVQETAYLEDRPLSQLYCAHEENCLSKSADHMDWPYGYRRLLRFSTQIYNLGRTDFRPKTGRDSWVWHQCHRHYHSIEVFTHYDLLTLNGSKVAEGHKASFCLEDTNCPTGLQRRYACANFGEQGVTVGCWDTYRHDIDCQWVDITDVGPGNYIFQVIVNPHYEVAESDFSNNMLQCRCKYDGHRVWLHNCHTGNSYPANAELSLEQEQRLRNNLI
B5: TRIM28 (protein)
chain: AASAAAASAAAASAASGSPGPGEGSAGGEKRSTAPSAAASASASAAASSPAGGGAEALELLEHCGVCRERLRPEREPRLLPCLHSACSACLGPAAPAAANSSGDGGAAGDGTVVDCPVCKQQCFSKDIVENYFMRDSGSKAATDAQDANQCCTSCEDNAPATSYCVECSEPLCETCVEAHQRVKYTKDHTVRSTGPAKSRDGERTVYCNVHKHEPLVLFCESCDTLTCRDCQLNAHKDHQYQFLEDAVRNQRKLLASLVKRLGDKHATLQKSTKEVRSSIRQVSDVQKRVQVDVKMAILQIMKELNKRGRVLVNDAQKVTEGQQERLERQHWTMTKIQKHQEHILRFASWALESDNNTALLLSKKLIYFQLHRALKMIVDPVEPHGEMKFQWDLNAWTKSAEAFGKIVAERPGTNSTGPAPMAPPRAPGPLSKQGSGSSQPMEVQEGYGFGSGDDPYSSAEPHVSGVKRSRSGEGEVSGLMRKVPRVSLERLDLDLTADSQPPVFKVFPGSTTEDYNLIVIERGAAAAATGQPGTAPAGTPGAPPLAGMAIVKEEETEAAIGAPPTATEGPETKPVLMALAEGPGAEGPRLASPSGSTSSGLEVVAPEGTSAPGGGPGTLDDSATICRVCQKPGDLVMCNQCEFCFHLDCHLPALQDVPGEEWSCSLCHVLPDLKEEDGSLSLDGADSTGVVAKLSPANQRKCERVLLALFCHEPCRPLHQLATDSTFSLDQPGGTLDLTLIRARLQEKLSPPYSSPQEFAQDVGRMFKQFNKLTEDKADVQSIIGLQRFFETRMNEAFGDTKFSAVLVEPPPMSLPGAGLSSQELSGGPGDGP
B6: PGK1 (protein)
chain: SLSNKLTLDKLDVKGKRVVMRVDFNVPMKNNQITNNQRIKAAVPSIKFCLDNGAKSVVLMSHLGRPDGVPMPDKYSLEPVAVELKSLLGKDVLFLKDCVGPEVEKACANPAAGSVILLENLRFHVEEEGKGKDASGNKVKAEPAKIEAFRASLSKLGDVYVNDAFGTAHRAHSSMVGVNLPQKAGGFLMKKELNYFAKALESPERPFLAILGGAKVADKIQLINNMLDKVNEMIIGGGMAFTFLKVLNNMEIGTSLFDEEGAKIVKDLMSKAEKNGVKITLPVDFVTADKFDENAKTGQATVASGIPAGWMGLDCGPESSKKYAEAVTRAKQIVWNGPVGVFEWEAFARGTKALMDEVVKATSRGCITIIGGGDTATCCAKWNTEDKVSHVSTGGGASLELLEGKVLPGVDALSNI
B7: OS9 (protein)
chain: GGVGSLNLEELSEMRYGIEILPLPVMGGQSQSSDVVIVSSKYKQRYECRLPAGAIHFQREREEETPAYQGPGIPELLSPMRDAPCLLKTKDWWTYEFCYGRHIQQYHMEDSEIKGEVLYLGYYQSAFDWDDETAKASKQHRLKRYHSQTYGNGSKCDLNGRPREAEVRFLCDEGAGISGDYIDRVDEPLSCSYVLTIRTPRLCPHPLLRPPPSAAPQAILCHPSLQPEEYMAYVQRQADSKQYGDKIIEELQDLGPQVWSETKSGVAPQKMAGASPTKDDSKDSDFWKMLNEPEDQAPGGEEVPAEEQDPSPEAADSASGAPNDFQNNVQVKVIRSPADLIRFIEELKGGTKKGKPNIGQEQPVDDAAEVPQREPEKERGDPERQREMEEEEDEDEDEDEDEDERQLLGEFEKELEGILLPSDRDRLRSETEKELDPDGLKKESERDRAMLALTSTLNKLIKRLEEKQSPELVKKHKKKRVVPKKPPPSPQPTEEDPEHRVRVRVTKLRLGGPNQDLTVLEMKRENPQLKQIEGLVKELLEREGLTAAGKIEIKIVRPWAEGTEEGARWLTDEDTRNLKEIFFNILVPGAEEAQKERQRQKELESNYRRVWGSPGGEGTGDLDEFDF

target: T1, B3GNT2 (Homo sapiens, UniProt Q9NY97); assay: Co-IP of FLAG-tagged B3GNT2 followed by mass spectrometry; format: cell-based; design: C-term IgG / C-term flag: unit not given here; conditions: Co-IP with FLAG antibody, C-terminally FLAG-tagged B3GNT2; mass spectrometry count, unit not given
T1 construct: The respective ORFs of candidate genes [CD274 (NM_014143), MCL1 (NM_021960), JUNB (NM_002229), and B3GNT2 (NM_006577)] were synthesized; expressed in transfected cells; host or cells: A375 melanoma cells (lentiviral ORF overexpression)
T1 sequence (Q9NY97 1-397): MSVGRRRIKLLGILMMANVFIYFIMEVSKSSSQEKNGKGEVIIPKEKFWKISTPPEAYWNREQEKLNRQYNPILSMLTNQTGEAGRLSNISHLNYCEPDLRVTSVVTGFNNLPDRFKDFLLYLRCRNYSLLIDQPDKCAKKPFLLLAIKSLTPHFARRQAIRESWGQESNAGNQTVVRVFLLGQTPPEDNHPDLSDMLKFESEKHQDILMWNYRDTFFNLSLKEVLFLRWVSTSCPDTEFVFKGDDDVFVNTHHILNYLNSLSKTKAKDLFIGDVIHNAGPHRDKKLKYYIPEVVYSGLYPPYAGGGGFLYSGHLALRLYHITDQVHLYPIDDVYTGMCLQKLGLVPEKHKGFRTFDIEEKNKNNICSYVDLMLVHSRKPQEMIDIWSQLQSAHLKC
How it was run: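 FLAG-tagged B3GNT2 immunoprecipitated from cell lysate (HEPES, 1% Triton X-100, 150 mM NaCl) with anti-FLAG versus […], overnight at 4° C, then captured on Protein A/G magnetic beads for 4 h. Two biological replicates per condition. Peptides fractionated and analyzed by nano-LC on an Orbitrap Elite in data-dependent mode.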

Row | Molecule | C-term flag
1 | B1 | 14
2 | B2 | 8
3 | B3 | 2
4 | B4 | 8
5 | B5 | 8
6 | B6 | 2
7 | B7 | 9

same assay, conditions: Co-IP with FLAG antibody, N-terminally FLAG-tagged B3GNT2; mass spectrometry count, unit not given

Row | Molecule | N-term FLAG
8 | B1 | 10
9 | B2 | 4
10 | B3 | 0
11 | B4 | 5
12 | B5 | 4
13 | B6 | 0
14 | B7 | 3

same assay, conditions: Co-IP with IgG control antibody, C-terminally FLAG-tagged B3GNT2; mass spectrometry count, unit not given

Row | Molecule | C-term IgG
15 | B1 | 2
16 | B2 | 0
17 | B3 | 0
18 | B4 | 0
19 | B5 | 0
20 | B6 | 0
21 | B7 | 0

same assay, conditions: Co-IP with IgG control antibody, N-terminally FLAG-tagged B3GNT2; mass spectrometry count, unit not given

Row | Molecule | N-term IgG
22 | B1 | 0
23 | B2 | 0
24 | B3 | 0
25 | B4 | 0
26 | B5 | 0
27 | B6 | 0
28 | B7 | 0
